Legend:
[1] = target: thiopeptolide Ac-Pro-Leu-Gly-thioester-Leu-Leu-Gly-OEt (not provided)
[2] = target: proteoglycan

- hydrolysis of the thiopeptolide substrate (Km, kcat) [1]: 270 µM
- Proteoglycan Degradation (µg of Chondroitin Sulfate/h) (µg of Chondroitin Sulfate/h) [2]: 8
Substance: human stromelysin catalytic domain protein (enzyme)
